Results published in PMC10020961, “Structural Elucidation of Ivermectin Binding to α7nAChR and the Induced Channel Desensitization” (ACS Chemical Neuroscience, 2023).

What was measured:
[1] = biological target: full-length human α7 nicotinic acetylcholine receptor (human) (UniProt P36544); experiment: SEC; S200 10/300 column, 20 mM HEPES pH 7.4, 300 mM NaCl, 0.2% DPC or 0.1% LDAO; pentamer fraction isolated
[2] = biological target: the molecule itself; experiment: NMR structure (NMR and ESR restraints with Rosetta comparative modelling); α7nAChR TMD + ICD in LDAO micelles, pH 4.7, 25 mM NaCl, 318 K, with ivermectin; fivefold symmetry applied in the calculations

full-length human α7 nicotinic acetylcholine receptor, sequence (P36544 23-502 limits assumed): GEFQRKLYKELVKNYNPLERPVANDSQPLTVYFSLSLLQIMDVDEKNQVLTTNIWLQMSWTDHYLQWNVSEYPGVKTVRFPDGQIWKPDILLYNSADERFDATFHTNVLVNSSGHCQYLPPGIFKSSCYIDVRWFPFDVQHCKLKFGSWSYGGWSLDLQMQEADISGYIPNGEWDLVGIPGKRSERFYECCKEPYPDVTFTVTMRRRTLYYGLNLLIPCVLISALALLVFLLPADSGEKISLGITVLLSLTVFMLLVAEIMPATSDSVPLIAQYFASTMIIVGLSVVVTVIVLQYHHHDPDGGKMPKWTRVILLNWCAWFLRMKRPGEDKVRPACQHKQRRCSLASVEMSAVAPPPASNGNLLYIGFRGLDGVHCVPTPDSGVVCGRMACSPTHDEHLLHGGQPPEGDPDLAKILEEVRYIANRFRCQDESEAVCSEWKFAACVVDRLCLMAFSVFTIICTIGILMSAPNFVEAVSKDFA

stoichiometry N [1]	Molecule	stoichiometry N [2]
5	full-length human α7 nicotinic acetylcholine receptor (from UniProt P36544 23-502)	–
–	human α7 nicotinic acetylcholine receptor construct containing the transmembrane and intracellular domains (α7nAChR TMD + ICD) (domain or fragment, α7 nicotinic acetylcholine receptor, human; construct with the transmembrane domain (TMD) and intracellular domain (ICD), without the extracellular domain; also called α7 TMD + ICD; α7 TMD-ICD; source: E. coli Rosetta 2(DE3) pLysS, purified (NiNTA, SEC pentamer fraction), in LDAO micelles) LYYGLNLLIPCVLISALALLVFLLPADSGEKISLGITVLLSLTVFMLLVAEIMPATSDSVPLIAQYFASTMIIVGLSVVVTVIVLQYHHHDPDGGKMPKWTRVILLNWCAWFLRMKRPGEDKVRPACQHKQRRCSLASVEMSAVAPPPASNGNLLYIGFRGLDGVHCVPTPDSGVVCGRMACSPTHDEHLLHGGQPPEGDPDLAKILEEVRYIANRFRCQDESEAVCSEWKFAACVVDRLCLMAFSVFTIICTIGILMSAPNFVE	5
